According to the nanobody polyreactivity screen of Harvey et al. (2022):

Assay: yeast display, Sf9 membrane polyspecificity reagent, FACS + sequencing; frameworks hold sequencing errors
How it was run: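 A nanobody's polyreactivity label depends on the gate it was sorted from. Yeast display cells were stained with 10% biotinylated, detergent-solubilized Sf9 membrane reagent for 1 hour at 4 °C, enriched on streptavidin microbeads and sorted by FACS. The low and high (top ~1%) gates were set on anti-HA fluorescence for expression and streptavidin fluorescence for reagent binding.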

Row | Sequence | polyreactivity (PSR sort gate)
1 | QVQLVESGGGLVQAGGSLRLSCAASGFIFSTNAMGWYRQAPGKERELVAAISRRGGNTYYADSVKGRFTISRDNAKNTVYLQMNSLKPEDTAVYYCNAVFRSGGLDYWGQGTQVTVSS | high polyreactivity
2 | QVQLVESGGGLVQAGGSLRLSCAASGFIFSTYVMGWYRQAPGKERELVAAISASGGRTYYADSVKGRFTISRDTAKNTVYLQMNSLKPEDTAVFYCAAEITDTYRWALNYWGQGTQVTVSS | high polyreactivity
3 | QVQLVESGGGLVQAGGSLRLSCAASGFIFSWNAMGWYRQAPGKERELVAAITNRGGSTYYADSVKGRFTISRDNAKNTVYLQMNSLKPEDTAVYYCAKRSSRWGRTPYDYWGQGTQVTVSS | high polyreactivity
4 | QVQLVESGGGLVQAGGSLRLSCAASGFIFSYLYAMGWYRQAPGKERELVAAITYNGGSTYYADSVKGRFTISRDIAKNTVYLQMNSLKPEDTAVYYCAARKRYRANSYWEMAYWGQGTQVTVSS | high polyreactivity
5 | QVQLVESGGGLVQAGGSLRLSCAASGFIFSYNAMGWYRQAPGKERELVAAISSRGGSTYYADSVKGRFTISRDNAKNTVYLQTKSLKPEDTAVYYCAVASRRVYTAPYDYWGQGTQVTVSS | high polyreactivity
6 | QVQLVESGGGLVQAGGSLRLSCAASGFIFSYNAMGWYRQAPGKERELVAAISSRGGSTYYADSVMGRFTISRDNAKNTVYLQMNSLKPEDTAVSYCAVASRRVYTAPSDYWGQGTQVTVSS | high polyreactivity
7 | QVQLVESGGGLVQAGGSLRLSCAASGFIFSYYAMGWYIQEPGKERELVAAITVTGGNTYYADSVKGRFTISRDNAKNTVYLQMNSLIPEDTAVYYCAAVVRGPGVSVYYWGLGTQVTVSS | low polyreactivity
8 | QVQLVESGGGLVQAGGSLRLSCAASGFIFSYYAMGWYRQAPGKERELVAAISGRGGSTYYADSVKGRFTISRDNEKNTVYLQMNSLKPEDTAVYYCAATTLRFYRHGDYWGQGTQVTVSS | low polyreactivity
9 | QVQLVESGGGLVQAGGSLRLSCAASGFIFSYYAMGWYRQAPGKERELVAAITSNGGSTYYADSVKGRFTISRDNAKNTVYLQMNSLKPEDTAVYYCNVKYRYWNQGYGSWGQGTQVTVSS | high polyreactivity
10 | QVQLVESGGGLVQAGGSLRLSCAASGFIFSYYTMGWYRQAPGKERELVAAITSGGSTNYADSVKGRFTISRDNAKNTVYLQMNSLKPEDTAVYYCNALLWAWTLWGSGYDYWGQGTQVTVSS | low polyreactivity
11 | QVQLVESGGGLVQAGGSLRLSCAASGFIFTANAMGWYRQAPGKESELVANINRSGDSTYYADSVKGRFTISRDNAKNTVYLQMNSLKPEDTAVYYCNKDWHSQVFSAYNSYDYWGQGTQVTVSS | low polyreactivity
12 | QVQLVESGGGLVQAGGSLRLSCAASGFIFTDNVMGWYRQAPGKERELVAAISRRGGSTYYADSVKGRFTISRDNAKNTVYLQMNSLKPEDTAVYYCNVARQSYLLDYWGQGTQVTVSS | high polyreactivity
13 | QVQLVESGGGLVQAGGSLRLSCAASGFIFTDYAMGWYRQAPGKERELVATISWSGSSTYYADSVKGRFTISRDNEKNTVYLQMNILKPEDTGVYYCAAEFWYTYPYLVDYWRQGTQVTVSS | low polyreactivity
14 | QVQLVESGGGLVQAGGSLRLSCAASGFIFTFYAMGWYRQEPGKEREFVASIDWGDGSTYYADSVKGRFTISRDNAKNTVYLQMNSLKPEDTAVYYCAHDYDGYVWDTEYDYWGQGTQVTVSS | low polyreactivity
15 | QVQLVESGGGLVQAGGSLRLSCAASGFIFTGNAMGWYRQAPGKERELVAAITGRGSTYYADSVKGRFTISRDNAKNTVYLQMNSLKPEDTAVYYCAAKRWWQYYWGQGTQVTVSS | high polyreactivity
16 | QVQLVESGGGLVQAGGSLRLSCAASGFIFTGNVMGWYRQAPGKERELVAAIRWSGGRTYYADSVKGRFTISRDNAKNTVYLQMNSLKPEDTAVYYCNALGRVQGYKPGGLDYWGQGTQVTVSS | high polyreactivity
17 | QVQLVESGGGLVQAGGSLRLSCAASGFIFTGYTMGWYRQAPGKERELVARISSGDSTKYADSVKGRFTISRDNAKNTVYLQMNSLKPEDTAVYYCAATTGYTARWRNRYIYYYWGQGTQVTVSS | high polyreactivity
18 | QVQLVESGGGLVQAGGSLRLSCAASGFIFTKYTMGWYRQAPGKERELVADITGRGTSTYADSVKGRFTISRDNAKNTVYLQMNSLKPEDTAVYYCAAVGWFADFLFSDINGYYWGQGTQVTVSS | low polyreactivity
19 | QVQLVESGGGLVQAGGSLRLSCAASGFIFTNVMGWYRQAPGKERELVASISSGGRTYYADSVKGRFTISRDNAKNTVYLQLNSLKPEDTAVYYCAKKKLLSVPARGYDYVYYWGQGTQVTVSS | high polyreactivity
20 | QVQLVESGGGLVQAGGSLRLSCAASGFIFTRNVMGWYRQAPGKERELVAGITYTSGSTYYADSVKGRFTISRDNAKNTVYLQMNSLKPEDTAVYYCAAEITRHYVFGDDYWGQGTQVTVSS | low polyreactivity
21 | QVQLVESGGGLVQAGGSLRLSCAASGFIFTRYAMGWYRQAPGKERELVAAISASGGSTYYADSVKGRFTISRDNAKNTVYLQMKSLKPEETAVYYCAAVPYRYTYDYWGQGTQLTVSS | high polyreactivity
22 | QVQLVESGGGLVQAGGSLRLSCAASGFIFTSYAMGWYRQAPGKERELVAAITDGGSTNYADSVKGRFTISRDNAKNTVYLQMNSLKPEDTAVYYCAADGFKTVLPEYDYWGQGTQVTVSS | low polyreactivity

Row | Sequence | polyreactivity (PSR sort gate)
23 | QVQLVESGGGLVQAGGSLRLSCAASGFIFTYNAMGWYRQAPGKETEFVASISRSGGRTYYADSVKGRFTISRDNAKNTVYLQMNSLKPEDTAVYYCAARNAYVYGMDYWGHGTQVTVSS | low polyreactivity
24 | QVQLVESGGGLVQAGGSLRLSCAASGFIFTYYAMGWYRAAPGKERELVAAIRGSGGRTYYADSVKGRFTISRDNAKNTVYLQMNSLKPEDTAVYYCTADPTWFGYVYYQYDYWGQGTQVTVSS | low polyreactivity
25 | QVQLVESGGGLVQAGGSLRLSCAASGFIFTYYAMGWYRQAPGKERELVAAISRIGGSTYYADSVKGRFTISRDNAKYTVYLQMNSLKPEDTAVYYCARYSWPLNKLAVDYWGQGTQVTVSS | high polyreactivity
26 | QVQLVESGGGLVQAGGSLRLSCAASGFIFTYYTMGWYRPAPGKERELVAAISRTGSTNYADSVKGRFTISRDNAKNTVYLQMNSLKPEDTAVYFCNARYRGWLTLDGGYGYWGQGTQVTVSS | low polyreactivity
27 | QVQLVESGGGLVQAGGSLRLSCAASGFIFTYYVMGWYRQAPGKERELVATISISDGTTYADSVKGRFTISRDNAKNTVYLQMNSLKPEDTAVYYCAKYFTTYKYDYWGQGTQVTVSS | low polyreactivity
28 | QVQLVESGGGLVQAGGSLRLSCAASGFIFVDNAMGWYRQAPGKERELVAAITYRGGSTYYADSVKGRFTISRDNAKNTVYLQMNSLKPEDTAVYYCNADYGDTFEYDYWGQGTQVTVSS | low polyreactivity
29 | QVQLVESGGGLVQAGGSLRLSCAASGFIFVDYDMGWYRQAPGKERELVASINWSGGSTDYADSVKGRFTISRDNAKNTVYLQMNSLKPEDTAVYYCAAEGQDGRFYWGQGTQVTVSS | low polyreactivity
30 | QVQLVESGGGLVQAGGSLRLSCAASGFIFVFYAMGWYRQAPGKERELVAAITWSGGGTYYADSVKGRFTISRDNAKNTVYLQMNSLKPEDTAVYYCNAEEPQYYYVLDKLYDYWGQGTQVTVSS | low polyreactivity
31 | QVQLVESGGGLVQAGGSLRLSCAASGFIFVFYDMGWYRQAPGKERELVAGITRNDGSTYYADSVKGRFKISRDNAKNTVYLLMNSLKPEDTAVYYCAADRVRRNDKLAYDYWGQGTQVTVSS | low polyreactivity
32 | QVQLVESGGGLVQAGGSLRLSCAASGFIFVGNAMGWYRQAPGKERELVAAISRRGSRTFYADSVKGRFTISRDNAKNTVYLQMNSLKPEDTAVYYCATDKWYGYYYWGQGTQVTVSS | low polyreactivity
33 | QVQLVESGGGLVQAGGSLRLSCAASGFIFVGYAMGWYRQAPGKERELVAAISKSGGSTYYADSVKGRFTISRDNAKNTVYLQMNSLKPEDTAVYYCAAAYASRNYRGLDYWGQGIQVTVSS | high polyreactivity
34 | QVQLVESGGGLVQAGGSLRLSCAASGFIFVKYAMGWYRQAPGKERELVAAISSTGGRTYYADSVKGRFTISRDNAKNTVYLQMNSLKPEVTAVYYCATEYGYPYGYWGQCTQVTVSS | high polyreactivity
35 | QVQLVESGGGLVQAGGSLRLSCAASGFIFVLYAMGWDRQAPGKERELVAAINGGSSTNYADSVKGRFTISRDNAKNTVYLQMNSLKPEDTAVYYCAADVIPDGVKKPRMYYWGQGTQVTVSS | low polyreactivity
36 | QVQLVESGGGLVQAGGSLRLSCAASGFIFVPNAMGWYRQAPGKERELVAAIRWSDGTTYYADSVKGRFTISRDNAKNTVYLQMNSLKPEDTAVYYCATDHDPRYDYWGQGTQVTVSS | high polyreactivity
37 | QVQLVESGGGLVQAGGSLRLSCAASGFIFVPYAMGWYRQAPGKEREFVAAIRCSGGRTYYADSVKGRFSISRDYAKNTVYLQMNSLKPDDTAVYYCAADTWQDRVRKTSFGYDYWGQGTQVTVSS | high polyreactivity
38 | QVQLVESGGGLVQAGGSLRLSCAASGFIFVPYAMGWYRQAPGKERELVARITWSGGRTYYADSVKGRFTISRDNAKNTVYLQMNSLKPEDTAVYYCNADVYGFDYWGQGTQVTVSS | high polyreactivity
39 | QVQLVESGGGLVQAGGSLRLSCAASGFIFVRNAMGWYRQAPGKERELVAVITRGGSTYYADSVKGRFTISRDNAKNTVYLQMNSLKPEDTAVYYCDARYYRGTYGRTEGAMDYWGQGTQVTVSS | high polyreactivity
40 | QVQLVESGGGLVQAGGSLRLSCAASGFIFVRYAMGWYRQAPGKERELVAAISWRGGSTYFADSVKGRFTISRDNAKNTVYLQMNSLKPEDTAVYYCAAVTWVHRYSRFNPFVAFDYWGQGTQVTVSS | high polyreactivity
41 | QVQLVESGGGLVQAGGSLRLSCAASGFIFVRYAMGWYRQAPGKERELVAAITRSGTSTYYADSVKGRFTISRDNAKTTVNLQMNSLKPEDTAVYYCAKEVRSRYGYWGQGTQVTVSS | high polyreactivity
42 | QVQLVESGGGLVQAGGSLRLSCAASGFIFVRYAMGWYRQAPGKERELVASITRSGGSTYYADSVKGRFTISRDNAKNTVYLQMNSLKPEDTAVYYCNAGLLRRRMDYWGQGTQVTVSS | high polyreactivity
43 | QVQLVESGGGLVQAGGSLRLSCAASGFIFVRYAMGWYRQAPGTERELVASITRSGGSTYYADSVKGRFTISRDNAKNTVYLQLNSLKPEDSAVYYCAASYYRSRGSTYGYWGQGTQVTVSS | high polyreactivity
